This test addresses insulin growth factor-1 receptor (IGF1R) (mouse (endogenous in mouse heart)). Kind of test: BLI. On the technique in general: Biolayer interferometry detects binding as a change in optical thickness at a sensor tip.

The results in this text go back to paper PMC10010047.

Broadly, the Kd is the equilibrium constant for the complex coming apart. High values mean weaker binding, low ones tighter binding.

B1: recombinant mouse SIRPα Fc chimera protein (rSIRPα) (Fc fusion)
chain: KELKVTQPEKSVSVAAGDSTVLNCTLTSLLPVGPIRWYRGVGPSRLLIYSFAGEYVPRIRNVSDTTKRNNMDFSIRISNVTPADAGIYYCVKFQKGSSEPDTEIQSGGGTEVYVLAKPSPPEVSGPADRGIPDQKVNFTCKSHGFSPRNITLKWFKDGQELHPLETTVNPSGKNVSYNISSTVRVVLNSMDVNSKVICEVAHITLDRSPLRGIANLSNFIRVSPTVKVTQQSPTSMNQVNLTCRAERFYPEDLQLIWLENGNVSRNDTPKNLTKNTDGTYNYTSLFLVNSSAHREDVVFTCQVKHDQQPAITRNHTVLGFAHSSDQGSMQTFPDNNATHNWN
B1 had a Kd of 147 µM.
